Experimental data reported in article PMC3789691.

Test system: T1, LexA2 recombinant (Leptospira interrogans serovar Copenhageni), ORF:e6531adf
T1 sequence: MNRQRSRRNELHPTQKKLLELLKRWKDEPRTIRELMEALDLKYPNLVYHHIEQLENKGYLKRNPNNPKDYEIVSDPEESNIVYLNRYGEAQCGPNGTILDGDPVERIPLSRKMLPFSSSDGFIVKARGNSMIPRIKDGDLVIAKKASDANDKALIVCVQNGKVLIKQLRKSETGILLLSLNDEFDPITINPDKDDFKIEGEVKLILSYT
Test: EMSA
Settings: Roche DIG Gel Shift Kit binding buffer (composition and pH not given), poly[d(A-T)], 1.55 fmol probe, 20 min on ice; 5% native gel, 0.5x TBE, 4 C

## GTTCATTTCTTCTGGATCGTTGCCTATTCATACTACTAAGTACATGATTAGGAAAATTAACTTAAAAAGCAAGAAAAAAATCAACTCGCATCTTGACATTTAAACTTTGTACAAGTATAATTACAATTAAAGCAATGGGACATATTCCCAAAGGAGACATGAATGTCTAAGAACATTAAAGTTACCAAAGAATCGAATACAGGGCTCAATAAAGAATTCTACGATCCTTCCAGAGGAAAGTC (double strand) [lexA2up]
  binding: binds
